Data from patent publication US20170306368, “METHODS FOR THAXTOMIN PRODUCTION AND MODIFIED STREPTOMYCES WITH INCREASED THAXTOMIN PRODUCTION” (University of Florida Research Foundation, Inc., published 2017).

Columns and labels:
Conditions in all cases: tags: C-terminal His6 (pET-22b, E. coli); label: Cy5
CebR (SCAB57761) [1] = target: T1, CebR (SCAB57761) (Streptomyces scabies 87-22); assay: EMSA; strong binding, positive control; excess nonspecific salmon sperm DNA; same buffer; inhibited by cellobiose
T1 chain: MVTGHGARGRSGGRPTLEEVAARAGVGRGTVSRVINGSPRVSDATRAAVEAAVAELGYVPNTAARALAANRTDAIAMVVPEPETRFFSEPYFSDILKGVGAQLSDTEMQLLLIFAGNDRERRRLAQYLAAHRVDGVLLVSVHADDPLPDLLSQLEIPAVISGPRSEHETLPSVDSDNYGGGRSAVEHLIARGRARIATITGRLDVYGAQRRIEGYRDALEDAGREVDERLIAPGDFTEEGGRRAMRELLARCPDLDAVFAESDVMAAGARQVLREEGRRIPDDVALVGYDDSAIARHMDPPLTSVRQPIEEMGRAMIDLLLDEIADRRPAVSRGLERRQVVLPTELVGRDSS

CebR (SCAB57761) [2] = target: T1, CebR (SCAB57761); assay: EMSA; strong binding with 20-fold excess nonspecific salmon sperm DNA; same buffer; inhibited by cellobiose
CebR (SCAB57761) [3] = target: T1, CebR (SCAB57761); assay: EMSA; strong binding with 20-fold excess nonspecific salmon sperm DNA; 0.08-3.2 uM CebR; pH 7.5, 0.25 mM CaCl2, 0.5 mM MgCl2, 50 mM KCl, room temperature; inhibited by cellobiose

Binder | binding result (CebR (SCAB57761) [1]) | further results
cbs cebR-E probe (dsDNA) DNA 1: CCAGGTACTGTGGGAGCGCTCCCACGAGTGATGT DNA 2: ACATCACTCGTGGGAGCGCTCCCACAGTACCTGG | binds | –
cbs txtB probe (dsDNA) DNA 1: CTCCCCCAGGGGGAGCGCTCCCACTGCGCTGTA DNA 2: TACAGCGCAGTGGGAGCGCTCCCCCTGGGGGAG | – | binding result (CebR (SCAB57761) [2]): binds
cbs bglC probe (dsDNA) DNA 1: GGTTCAGGCATGGAAGCGCTCCCATTGGTGGTCG DNA 2: CGACCACCAATGGGAGCGCTTCCATGCCTGAACC | binds | –
cbs txtR-A probe (dsDNA) DNA 1: TGTCAATAAGCGGGAGCGCTCCCACAGCGCTCTC DNA 2: GAGAGCGCTGTGGGAGCGCTCCCGCTTATTGACA | – | binding result (CebR (SCAB57761) [3]): binds
